# Where no end group is shown, it is not given here.
# B1: recombinant LP protein: LP protein, substantially the amino acid sequence of SEQ ID NO:4, expressed in E. coli as a polyHis fusion protein (protein)
# chain: MKYSLNNLHFLVDVAEGCDATCQFRKAIEDCRKKAHHSDVLQTSVQTTATFTSMDTSQLPGSGVFKECMKEKAKEFKAGK
# modifications: polyHis tag
# Experiments:
# human macrophages = experiment: H2O2 production by IFN-γ activated macrophages (scopoletin fluorometric assay); assay type: cell-based; details: 3 hrs preincubation, IFN-γ 200 units/ml, 3 days
# Procedure: Monocytes obtained by leukophoresis of healthy volunteers were purified on Ficoll-hypaque and Percoll (Pharmacia, Piscataway, N.J.) gradients and placed into microtiter well (5×10^5 /well) in RPMI-1640 (GIBCO, Grand Island, N.Y.) with 5% pooled normal human serum and 1% gentamycin (M. A. Bioproducts, Walkinville, Md.). The cells were greater than 95% macrophages as judged by esterase staining. […] After one day in culture, non-adherent cells were rinsed away and the macrophages were treated, e.g., with human CGRP, Calcitonin, or LP as described below. Following treatment, the macrophages were incubated for three days with a concentration of from 100 to 400 units interferon gamma (Amgen Biologicals, Thousand Oaks, Calif.), in medium with 15% pooled normal human serum, at which time the H2 O2 concentration in the cells was determined.
# H2 O2 production by macrophages was determined by fluorometric assay using the fluorophore scopoletin (de la Harpe et al., J. Immunol. Methods 78: 323 (1985)). […] The amount of H2 O2 released per culture is determined as nanomoles H2 O2. […]
# Human macrophage monolayers were pretreated for three hours with varying concentrations of human CGRP. […] The amount Of H2 O2 produced by the cells was then determined according to the above procedure. […]
# Leishmania major = experiment: Exacerbation of cutaneous leishmaniasis (footpad lesion size); assay type: in vivo, CBA mice; details: 80 pg admixed with 10^5 L. major promastigotes, subcutaneous
# Procedure: In order to assay for immunosuppressive activity, the recombinant LP protein described in subsection A above was tested for the ability to exacerbate infection of mice with Leishmania major substantially as described in Titus et al. (1988) Science 239, 1306 and Theodos et al. (1991) Infect. Immun. 59, 1592-1598.
# Briefly, groups of 4 CBA mice each were injected subcutaneously in the footpad with 10^5 L. major promastigotes alone or 10^5 parasites admixed with 80 pg of LP protein. Lesion development was followed by measuring the increase in thickness of the injected footpad compared to the thickness of the contralateral uninjected control footpad.
# RAW 264.7 cell line = experiment: Inhibition of nitric oxide production by LPS-stimulated macrophages (Greiss reaction); assay type: cell-based; details: 10^6 to 10^1 pg/ml; LPS 1 μg/ml; nitrite 2 hours later
# Procedure: Macrophage cells from the RAW 264.7 cell line (Drapier et al. (1988) J. Immunol. 140:2829) were preincubated with various concentrations of LP protein as indicated in FIG. 8. The cells were then stimulated with 1 μg/ml lipopolysaccharide […] (LPS) and NO production was monitored 2 hours later by measuring nitrite in the supernatants of the cultures. Nitrite was measured by the method described in Ding et al. (1988) J. Immunol. 141:2407. Briefly, levels of nitrite in the supernatants of the cultures were assessed by the Greiss reaction as follows. 50 μl cell culture supernatants were mixed with 50 μl of Greiss reagent [1% sulfanilamide, 0.1% N-(1-naphthyl)ethyl-enediamine dihydrochloride in 2.5% phosphoric acid] and incubated at room temperature for 10 minutes. Absorbance was measured at 570 nm. Concentration of NO2 in the supernatant was determined by comparison to a standard curve generated with dilutions of NaNO2.
molecule,measurement,setting,value
"calcitonin (CGNLSTCMLGTYTQDFNKFHTFPQTAIGVGAP; ends and bridges not checked; cysteine pairing not given here; UniProt P01258 85-116, looked up) [neuropeptide derived from the same gene as CGRP, available commercially]",inhibition of H2O2 production by macrophages,human macrophages,to a degree similar to that seen with CGRP
B1,effect on Leishmania infection (size of footpad lesions),Leishmania major,greatly exacerbated
same,NO production by macrophages preincubated with the protein,RAW 264.7 cell line,significant decrease

# — US5763271A, “Vasodilatory and immune suppressant peptides” (The President and Fellows of Harvard College, priority 1994, dated 1998)
